In patent publication US20230193225A1, “NEW USES OF A MUTATED LACTONASE, AND COMPOSITIONS” (FONDATION MEDITERRANEE INFECTION, priority 2019, published 2023):
Entries after “also recorded” stand apart in the source; their conditions may differ.

Tests used:
[1] = system: Pseudomonas aeruginosa UCBPP-PA14 biofilm; test: MBEC (Minimal Biofilm Eradication Concentration) assay; type: cell-based; conditions: for MBEC: P. aeruginosa UCBPP-PA14 biofilm; for factor of decrease of the concentration required to eliminate the biofilms in presence of SsoPox-W263I: P. aeruginosa biofilms, with vs without SsoPox-W263I
Description: (§1) The doses of antimicrobial agents required to eliminate bacterial biofilms are determined using the “MBEC (Minimal Biofilm Eradication Concentration) Assay TM” technique developed by Innovotech (Alberta, Canada) according to the supplier's data.
(§2) Bacterial biofilms are formed by bacterial growth in a medium and conditions adapted to the bacteria studied in the presence or absence of the lactonase SsoPox-W263I of sequence SEQ ID NO: 2.
(§3) Bacteria are pre-cultured for 6 hours in oxygenated flasks under the conditions indicated in Table 1 and then MBEC plates are plated by diluting the pre-culture to 1:1000 in the presence or absence of SsoPox-W263I lactonase at 0.5 mg/mL. After 24 hours of growth, the bacterial biofilms formed on the spikes of the MBEC plate cover are rinsed by immersion for 5 minutes in a buffer solution (Table 1). The biofilms are then immersed in a buffer solution containing antimicrobial agents (disinfectants, bactericidal or bacteriostatic antibiotics, bacteriophages, biocides) for a period of time representative of the mechanism of action of the antimicrobial agent studied (1.5 h for antiseptics, 3 h for antibiotics, 4 h for phages). After immersion in the antimicrobial agents, the bacterial biofilms were rinsed for 5 minutes in a buffer solution and then incubated for 1 hour in a nutrient medium adapted to the bacteria studied and containing detergents to detach the biofilms (Table 1). After 1 hour of incubation, the bacteria detached from the biofilm and thus present in the wells of the MBEC plate are serially diluted and plated on suitable nutrient agar to perform bacterial counts and determine the number of bacteria that survived the combined treatment of the mutated SsoPox-W263I enzyme and the antimicrobial agent (FIG. 1). The MBEC is the minimum concentration of antimicrobial agent to eradicate the bacteria in the biofilm.

[2] = system: P. aeruginosa biofilms; test: Enumeration of bacteria recovered from biofilms after antiseptic or bleach treatment; type: cell-based, Pseudomonas aeruginosa; conditions: for bacteria recovered from the biofilm: 10 mM H2O2 for 1.5 hours
Description: as §2, §3

[3] = system: Pseudomonas aeruginosa UCBPP-PA14 biofilm; test: MBEC (Minimal Biofilm Eradication Concentration) assay; type: cell-based; conditions: control sample with inactive variant SsoPox-5A8
[4] = system: Chromobacterium violaceum ATCC-12472 biofilm; test: as above; type: cell-based; conditions: C. violaceum ATCC-12472 biofilm
Description: as §1, §2, §3

[5] = system: Pseudomonas aeruginosa PA14; test: Susceptibility to Intesti phage cocktail; type: cell-based; conditions: enzyme 0.5 mg/mL, phage cocktail 0 to 50% (vol/vol)
Description: FIG. 2: Increased susceptibility of Pseudomonas aeruginosa PA14 to Intesti phage cocktail.
as §3
The Intesti phage cocktail consists of a mixture of sterile filtrates of phages directed against Shigella flexneri (serovariants 1, 2, 3, 4, 6), Shigellasi, Proteus vulgaris, Proteus mirabilis, Enterococcus, Staphylococcus, Pseudomonas aeruginosa and excipients such as 8-hydroxyquinoline sulfate monohydrate at 0.0001 g/ml (estimated content) and is marketed by Intesti-bacteriophage, Microgen, Russia

[6] = system: CRISPR-Cas system genes cas1, cas3, csy1, csy2, csy3 and csy4 in P. aeruginosa PA14 and clinical isolates; test: Gene expression of the CRISPR-Cas system (RT-PCR); type: cell-based, Pseudomonas aeruginosa; conditions: vs inactive SsoPox-5A8
Description: (§4) FIG. 3: Expression changes of the CRISPR-Cas system. Expression of the CRISPR-Cas system genes casl, cas3, csy1, csy2, csy3 and csy4 was measured for the P. aeruginosa model strain PA14 as well as for clinical isolates from diabetic foot infections (All, B10, C5, C11, D10 and F3) and for the marine bacterium Chromobacterium violaceum CV12472. […] Error bars represent variations for 2 technical duplicates of 2 biological replicates. *p-values<0.05, *p-values<0.01, ***p-values<0.001 by Student's t-test.
(§5) After 16 hours of culture (stationary phase), the bacteria were recovered by centrifugation.
RNAs were extracted and purified with the PureLink® RNA mini kit (ThermoFisher) according to the supplier's recommendations and then treated with the TURBO DNA-free™ kit (ThermoFisher) to remove genomic DNA contamination. Samples were checked for quality by 1.5% agarose gel migration and the amount of nucleic acid was measured with a NanoDrop 2000 spectrophotometer (Thermo Scientific) at OD260 nm. Complementary DNAs (cDNAs) were synthesised using the TaqMan® Reverse Transcription Reagents kit (ThermoFisher) according to the manufacturer's recommendations. RT-PCR was then performed using the LuminoCt® SYBR® Green qPCR ReadyMix™ kit and a CFX thermocycler (Bio-Rad) and specific primer pairs. PCR amplification was performed with the following method: Denaturation for 5 minutes at 94° C., followed by 29 cycles of [1 minute at 94° C., 1 minute at 55° C., 30 seconds at 72° C.] for amplification, then a final elongation step for 7 minutes at 72° C. Sample fluorescence is measured at the end of each cycle and denaturation curves were analysed with CFX Manager™ software (Bio-Rad). Gene expression was normalised by expression of a 5S RNA housekeeping gene.

[7] = system: CRISPR-Cas system genes in Chromobacterium violaceum CV12472; test: Gene expression of the CRISPR-Cas system (RT-PCR); type: cell-based; conditions: C. violaceum CV12472; vs inactive SsoPox-5A8
Description: as §4, §5
RNAs were extracted and purified with the PureLink® RNA mini kit (ThermoFisher) according to the supplier's recommendations and then treated with the TURBO DNA-free™ kit (ThermoFisher) to remove genomic DNA contamination. Samples were checked for quality by 1.5% agarose gel migration and the amount of nucleic acid was measured with a NanoDrop 2000 spectrophotometer (Thermo Scientific) at OD260 nm. […] RT-PCR was then performed using the LuminoCt® SYBR® Green qPCR ReadyMix™ kit and a CFX thermocycler (Bio-Rad) and specific primer pairs. […] Sample fluorescence is measured at the end of each cycle and denaturation curves were analysed with CFX Manager™ software (Bio-Rad). […]

OO [H2O2]
MBEC ([1]; with SsoPox W263I 0.5 mg/mL): 10 mM | MBEC ([1]; without SsoPox W263I): 100 mM | factor of decrease of the concentration required to eliminate the biofilms in presence of SsoPox-W263I [1]: 10 | bacteria recovered from the biofilm ([2]; without the lactonase): 104-105 bacterial cells | antiseptic required to completely eradicate the biofilm [3]: 100 mM

CN(C)S(=O)(=O)N(SC(F)(Cl)Cl)c1ccccc1 [Preventol A4S, Dichlofluanide]
MBEC ([4]; with SsoPox W263I 0.5 mg/mL): >10 µM | MBEC ([4]; without SsoPox W263I): <200 µM

NC[C@H]1O[C@H](O[C@H]2[C@H](O)[C@@H](O[C@H]3O[C@H](CO)[C@@H](O)[C@H](N)[C@H]3O)[C@H](N)C[C@@H]2N)[C@H](N)C[C@@H]1O [Tobramycin]
MBEC ([1]; with SsoPox W263I 0.5 mg/mL): 1 µg/mL | MBEC ([1]; without SsoPox W263I): 10 µg/mL | factor of decrease of the concentration required to eliminate the biofilms in presence of SsoPox-W263I [1]: 10

Gentamicin
MBEC ([1]; with SsoPox W263I 0.5 mg/mL): 2 µg/mL | MBEC ([1]; without SsoPox W263I): 20 µg/mL | factor of decrease of the concentration required to eliminate the biofilms in presence of SsoPox-W263I [1]: 10

B1: SsoPox-W263I: mutated hyperthermophilic lactonase of Sulfolobus solfataricus (SsoPox), tryptophan at position 263 substituted by isoleucine, SEQ ID NO: 2 (protein, listed as Sulfolobus solfataricus)
chain: MRIPLVGKDSIESKDIGFTLIHEHLRVFSEAVRQQWPHLYNEDEEFRNAVNEVKRAMQFGVKTIVDPTVMGLGRDIRFMEKVVKATGINLVAGTGIYIYIDLPFYFLNRSIDEIADLFIHDIKEGIQGTLNKAGFVKIAADEPGITKDVEKVIRAAAIANKETKVPIITHSNAHNNTGLEQQRILTEEGVDPGKILIGHLGDTDNIDYIKKIADKGSFIGLDRYGLDLFLPVDKRNETTLRLIKDGYSDKIMISHDYCCTIDIGTAKPEYKPKLAPRWSITLIFEDTIPFLKRNGVNEEVIATIFKENPKKFFS
sensitivity of bacteria to Intesti phage cocktail (number of bacteria counted) [5]: more sensitive | sensitivity of bacteria to Intesti phage cocktail (number of bacteria counted) ([5]; listed as W263I mutated lactonase): satisfactory results | expression of CRISPR-Cas genes ([6]; P. aeruginosa PA14): completely abolished | expression of the csy1-4 genes ([6]; clinical isolate A11): significantly reduced | factor of decrease of CRISPR-Cas gene expression ([6]; clinical isolate B10): 5.5 | factor of decrease of CRISPR-Cas gene expression ([6]; clinical isolate C11): 8 | expression of the csy1-4 genes ([6]; clinical isolate D10): significantly reduced | factor of increase of CRISPR-Cas gene expression, on average ([6]; clinical isolate F3): 1.7 | decrease in number of bacteria recovered from biofilms ([2]; 0.7 mM NaOCl and SsoPox-W263I, compared to NaOCl alone): 2 Log | bacteria recovered from the biofilm ([2]; biofilm formed with SsoPox-W263I): no bacteria are recovered; also recorded: significantly reduces | number of bacteria recovered from the biofilm, combination vs either agent alone ([2]; sodium hypochlorite in combination with W263I mutated lactonase): significantly reduces | number of bacteria recovered from biofilms ([2]; without NaOCl treatment, with vs without W263I mutated lactonase): same number of bacteria | number of bacteria recovered from biofilms ([2]; without antiseptic treatment, with vs without SsoPox-W263I): same number of bacteria | expression of the cas3 and csy2-4 genes [7]: significantly reduced

B2: SsoPox-5A8: inactive variant of SsoPox (V27G/P67Q/L72C/Y97S/Y99A/T177D/R223L/L226Q/L228M/W263H) (protein, UniProt Q97VT7 1-314, looked up, variant V27G P67Q L72C Y97S Y99A T177D R223L L226Q L228M W263H)
Aryldialkylphosphatase: MRIPLVGKDSIESKDIGFTLIHEHLRGFSEAVRQQWPHLYNEDEEFRNAVNEVKRAMQFGVKTIVDQTVMGCGRDIRFMEKVVKATGINLVAGTGISIAIDLPFYFLNRSIDEIADLFIHDIKEGIQGTLNKAGFVKIAADEPGITKDVEKVIRAAAIANKETKVPIITHSNAHNNDGLEQQRILTEEGVDPGKILIGHLGDTDNIDYIKKIADKGSFIGLDLYGQDMFLPVDKRNETTLRLIKDGYSDKIMISHDYCCTIDHGTAKPEYKPKLAPRWSITLIFEDTIPFLKRNGVNEEVIATIFKENPKKFFS
sensitivity of bacteria to Intesti phage cocktail (number of bacteria counted) [5]: little impacted
